# Source: patent US20150079111A1, “MECHANISM, DIAGNOSTIC, AND TREATMENTS FOR COMPLICATIONS OF RENAL FAILURE” (priority 2012, published 2015)
# B1: MDA-RSA: rat serum albumin treated with an equimolar 1 mmol/L solution of malondialdehyde and acetaldehyde for 3 days at 37° C. (protein)
# chain: EAHKSEIAHRFKDLGEQHFKGLVLIAFSQYLQKCPYEEHIKLVQEVTDFAKTCVADENAENCDKSIHTLFGDKLCAIPKLRDNYGELADCCAKQEPERNECFLQHKDDNPNLPPFQRPEAEAMCTSFQENPTSFLGHYLHEVARRHPYFYAPELLYYAEKYNEVLTQCCTESDKAACLTPKLDAVKEKALVAAVRQRMKCSSMQRFGERAFKAWAVARMSQRFPNAEFAEITKLATDVTKINKECCHGDLLECADDRAELAKYMCENQATISSKLQACCDKPVLQKSQCLAEIEHDNIPADLPSIAADFVEDKEVCKNYAEAKDVFLGTFLYEYSRRHPDYSVSLLLRLAKKYEATLEKCCAEGDPPACYGTVLAEFQPLVEEPKNLVKTNCELYEKLGEYGFQNAVLVRYTQKAPQVSTPTLVEAARNLGRVGTKCCTLPEAQRLPCVEDYLSAILNRLCVLHEKTPVSEKVTKCCSGSLVERRPCFSALTVDETYVPKEFKAETFTFHSDICTLPDKEKQIKKQTALAELVKHKPKATEDQLKTVMGDFAQFVDKCCKAADKDNCFATEGPNLVARSKEALA
# B2: Pent-RSA: prepared by incubating normal RSA with 0.1 M D-glucose in sodium phosphate at 37° C. for 14 days (protein)
# chain: B1 chain
# What was measured:
# [1] = test system: renin-angiotensin-aldosterone (RAS) proteins AGT, ACE, AT1; experiment: RAS protein levels (AGT, ACE, AT1) in PTCs by Western blot; type: cell-based, human; details: PTCs treated, then exposed to 100 μg/ml of AOPPs (sample set D)
# Procedure: (§1) Human Tubular Epithelial Cells (HUTEC) cells were cultured in DMEF/F-12 medium containing 10% fetal calf serum, penicillin (200 U/ml) and streptomycin (200 ug/ml) until confluence, and then left serum-free overnight.
# In sample set D, the PTCs were treated with either copper-zinc superoxide dismutase (an […], c-SOD), one of two inhibitors of NADPH oxidase (either diphenyleneiodonium (DPI) or apocynin), a pan-PKC inhibitor (Go6983), or PKCα inhibitor (Go6976). The PTCs were then exposed to 100 μg/ml of AOPPs. The protein levels of downstream renin-angiotensin-aldosterone (RAS) proteins were measured relative to β-actin. The expression of […], ACE, and AT1 was examined by Western blot.
# [2] = test system: p47phox, a subunit of NADPH oxidase; experiment: Phosphorylation of p47phox in AOPP-exposed proximal tubule cells (immunoprecipitation / co-immunoprecipitation); type: cell-based, human; details: PTCs incubated with inhibitor before AOPP exposure (sample set B)
# Procedure: as §1
# In sample set B, PTCs were incubated with either a pan-PKC inhibitor (Gö6983) or PKCα inhibitor (Gö6976) before AOPP exposure. Phosphorylation of p47phox was assayed by immunoprecipitation.
# In sample set F, the level of phosphorylated p47phox in PTC cells was analyzed by co-immunoprecipitation.
# [3] = test system: proximal tubule cells (PTCs); experiment: Intracellular ROS production in proximal tubule cells, fluorometric analysis; type: cell-based, human; details: PTCs pre-incubated or transfected, then exposed to AOPPs (sample set C)
# Procedure: as §1
# In sample set C, the PTC cells were pre-incubated with either a pan-PKC inhibitor (Gö6983), PKCα inhibitor (Gö6976), anti-RAGE antibody (a-RAGE), transfected with a CD36 siRNA (si-CD36), or both anti-RAGE antibody and transfected with CD36 siRNA (si-CD36+a-RAGE). The PTC cells were then exposed to AOPPs. Intracellular ROS production was determined by a fluorometric analysis.
# [4] = patients with type-2 diabetes; cited from earlier work
# [5] = test system: human microvascular endothelial cell (HMVECad); experiment: Intracellular ROS production in HMVECad cells, fluorometric analysis; type: cell-based; details: for intracellular ROS: HMVECads exposed to modified RSA versus control unmodified RSA; for intracellular ROS production: HMVECads, 100 μg/ml for 15, 30, 60 or 120 minutes, effect of exposure time
# Text: (§2) Interfering with human microvascular endothelial cell (HMVECad) SCARB1 expression or blocking the receptor using an antibody ameliorates the effect of MDA-protein or pentosidine-protein on intracellular ROS production. Cryopreserved HMVECads were purchased from Life Technologies and cultured according to the company's instructions in Medium 131 with attachment factor (M-131-500) and addition of Microvascular Growth Supplement until confluence, and then left serum-free overnight.
# First, HMVECads were treated with 100 μg/ml of one of three solutions. The first solution (MDA-protein) was rat serum albumin (RSA) treated with an equimolar 1 mmol/L solution of malondialdehyde (MDA) and acetaldehyde for 3 days at 37° C. The second solution was pentosidine-RSA, prepared by incubating 0.5 mg of normal RSA with 0.1 M D-glucose in 0.5 ml of 0.1 M sodium phosphate at 37° C. for 14 days. The third solution (the control) was untreated RSA from the same batch. The HMVECads were treated for 15, 30, 60, or 120 minutes. Following the indicated time, intracellular ROS production was determined by a fluorometric analysis.
# (§3) Next, the cells were pre-incubated with a polyclonal anti-SCARB1 antibody (a-SRB) or a polyclonal anti-CD36 antibody (a-CD36) or transfected with either SCARB1 siRNA (si-SRB) or CD36 siRNA (siCD36) before exposure to MDA-RSA or Pent-RSA as above. The pre-incubations were performed in various combinations. The labels beneath each set of bars indicate which pre-incubation and which exposure was made to that set. The bars labelled “NC-siRNA” were pre-incubated with scramble siRNA and exposed to untreated RSA. The dark bars are read using the left y-axis, and the white bars are read using the right y-axis.
# (§4) The intracellular ROS was a proxy for NADPH oxidase activation and mitochondrial leakage, both of which are linked to cellular stress and induction of apoptosis. The phospho-PKCα measured membrane-associated PKC signalling induced by oxidation and linked to activation of NADPH oxidase and other cellular stressors.
# [6] = test system: PKCα; experiment: Phospho-PKCα (membrane-associated PKC signalling, cellular stress) in HMVECad cells; type: cell-based, human; details: HMVECads exposed to modified RSA versus control unmodified RSA
# Text: as §2
# Next, the cells were pre-incubated with a polyclonal anti-SCARB1 antibody (a-SRB) or a polyclonal anti-CD36 antibody (a-CD36) or transfected with either SCARB1 siRNA (si-SRB) or CD36 siRNA (siCD36) before exposure to MDA-RSA or Pent-RSA as above. The pre-incubations were performed in various combinations. The labels beneath each set of bars indicate which pre-incubation and which exposure was made to that set. […] The dark bars are read using the left y-axis, and the white bars are read using the right y-axis.
# as §4
# [7] = test system: AGT, ACE and AT1; experiment: Expression of AGT, ACE and AT1 in HMVECad cells by Western blotting; type: cell-based, human; details: HMVECads, 60 minutes, modified RSA versus control
# Text: as §2, §3
# After incubating for 60 minutes, the intracellular ROS production was again determined for the cells of FIG. 20 by a fluorometric analysis. The expression levels of AGT, ACE and AT1 were examined by Western blotting.
molecule,measurement,setting,value
"c1ccc2c(c1)[I+]c1ccccc1-2 [DPI, diphenyleneiodonium]","protein levels of RAS proteins (AGT, ACE, AT1) relative to β-actin",[1],lower levels of these proteins
copper-zinc superoxide dismutase [c-SOD],"protein levels of RAS proteins (AGT, ACE, AT1) relative to β-actin",[1],lower levels of these proteins
COc1cc(C(C)=O)ccc1O [apocynin],"protein levels of RAS proteins (AGT, ACE, AT1) relative to β-actin",[1],lower levels of these proteins
"Cn1c2ccccc2c2c3c(c4c5ccccc5n(CCC#N)c4c21)CNC3=O [Gö6976, 12-(2-Cyanoethyl)-6,7,12,13-tetrahydro-13-methyl-5-oxo-5H-indolo(2,3-a)pyrrolo(3,4-c)-carbazole]",phosphorylation of p47phox,[2],p47phox is phosphorylated through pan-PKC or PKCα
same,intracellular ROS production,[3],Further reduction
same,"protein levels of RAS proteins (AGT, ACE, AT1) relative to β-actin",[1],lower levels of these proteins
CC1(C)CC[C@]2(C(=O)O)CC[C@]3(C)[C@H](C(=O)C=C4[C@@]5(C)C=C(C#N)C(=O)C(C)(C)[C@@H]5CC[C@]43C)[C@@H]2C1 [bardoxolone],nephroprotective effect,[4],nephroprotective
B1,intracellular ROS,[5],caused an increase in activity compared to the control
same,intracellular ROS production,[5],greater ROS production
same,phospho-PKCα (cellular stress signalling),[6],caused an increase in activity compared to the control
same,"expression levels of AGT, ACE and AT1",[7],caused an increase in activity compared to the control
B2,intracellular ROS,[5],caused an increase in activity compared to the control
same,intracellular ROS production,[5],greater ROS production
same,phospho-PKCα (cellular stress signalling),[6],caused an increase in activity compared to the control
same,"expression levels of AGT, ACE and AT1",[7],caused an increase in activity compared to the control
